# Reference: US20040005636A1, “Method for obtaining the binding affinities of a peptide library to a protein” (priority 2002, published 2004)
# Ends that are not written are not given here. Peptide text beside a SMILES is read from it. * marks the point of attachment. Fluorescein(5-NHCOCH2) = O=C(C*)Nc1ccc2c(c1)C(=O)OC21c2ccc(O)cc2Oc2cc(O)ccc21
# T1: hERα-LBD (Homo sapiens, UniProt P03372)
# T1 construct: The receptor ERα-LBD or TRβ-LBD, expressed using reported protocols; made in house
# T1 sequence (P03372 311-547 limits assumed): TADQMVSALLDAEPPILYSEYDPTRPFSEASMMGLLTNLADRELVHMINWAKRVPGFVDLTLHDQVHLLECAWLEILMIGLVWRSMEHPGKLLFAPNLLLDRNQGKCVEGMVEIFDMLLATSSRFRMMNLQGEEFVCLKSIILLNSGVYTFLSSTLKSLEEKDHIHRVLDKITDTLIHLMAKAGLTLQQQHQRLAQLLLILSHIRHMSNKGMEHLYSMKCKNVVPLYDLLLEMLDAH
# T2: hERα-LBD (ligand binding domain of estrogen receptor α) (human, UniProt P03372 297-554)
# T2 construct: Assayed with estradiol, diethylstilbestrol, genistein or tamoxifen present; the ligand is named under assay in each row
# T2 sequence (looked up): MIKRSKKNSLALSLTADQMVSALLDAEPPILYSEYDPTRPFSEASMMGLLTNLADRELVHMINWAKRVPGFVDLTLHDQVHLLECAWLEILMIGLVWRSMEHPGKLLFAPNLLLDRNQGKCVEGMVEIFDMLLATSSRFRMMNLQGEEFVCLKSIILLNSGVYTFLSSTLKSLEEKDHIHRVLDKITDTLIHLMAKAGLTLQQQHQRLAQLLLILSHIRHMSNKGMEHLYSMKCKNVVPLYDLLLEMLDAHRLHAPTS
# T3: hTRβ-LBD (ligand binding domain of thyroid hormone receptor β) (human, UniProt P10828 202-461)
# T3 construct: Assayed with the small-molecule ligand T3 present
# T3 sequence (looked up): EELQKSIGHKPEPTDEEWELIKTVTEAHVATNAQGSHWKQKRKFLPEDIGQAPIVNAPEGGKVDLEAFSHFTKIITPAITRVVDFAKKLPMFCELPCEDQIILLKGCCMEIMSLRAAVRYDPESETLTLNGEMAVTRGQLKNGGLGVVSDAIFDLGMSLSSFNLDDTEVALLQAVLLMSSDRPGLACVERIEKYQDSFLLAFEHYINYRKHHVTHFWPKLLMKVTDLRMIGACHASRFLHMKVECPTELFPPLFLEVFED
# What was measured:
# hERα-LBD = target: T1, hERα-LBD; experiment: Fluorescence polarization assay of coregulator peptide binding to ERα-LBD; conditions: ERα-LBD in the presence of estradiol; read-out: Dissociation constant for ERα, Estradiol
# Experimental: The peptide library synthesized in Example 1 was assayed with ERα or TRβ receptor. Library members were kept at a constant concentration of 10 nM. A ligand was optionally added to the nuclear hormone receptor.
# The receptor ERα-LBD or TRβ-LBD, expressed using reported protocols (for TR see, e.g., Darimont et al., Genes Dev., 12(21):3343-56, (1998); and for ER, see, e.g., Shiau et al., Cell, (1998), 95(7):927-937), was used. The concentration of protein varied between 0.001-20 μM in the following way. In 96 well plates, hTRβ-LBD or hERα-LBD was serially diluted from 40 μM to 0.002 μM in binding buffer (50 mM Sodium Phosphate, 150 mM NaCl, pH 7.2, 1 mM DTT, 1 mM EDTA, 0.01% NP40, 10% glycerol), containing 200 μM ligand (T3, for TRβ, or estradiol, diethylstilbestrol, genistein or tamoxifen for ERα).
# (§1) Subsequently 10 μL of diluted protein was added to 10 μL of fluorescent coregulator peptide (20 nM) in 384-well plates yielding final protein concentrations of […] and 10 nM fluorescent peptide concentration. The samples were allowed to equilibriate for 30 minutes. Binding was then measured using fluorescence polarization (excitation λ at 485 nm, emission λ at 530 nm) on an Analyst AD (available from Molecular Devices).
# (§2) All experiments were carried out in quadruplicate, with each iteration containing the positive and negative controls, and 10-12 dose points. The data were then fit using Klotz plots to determine IC50 values using nonlinear regression analysis that fits the data to a modification of the model of Heyduk and Lee. (Heyduk et al., Proc. Natl. Acad. Sci., (1990), 1774; Heyduk et al., Nature, (1993), 364, 6437; Heyduk et al., Methods Enzymol., 274, 492. Further analysis was conducted using Hill and Scatchard plots to confirm number and homogeneity of binding sites as discussed hereinbelow.
# FIG. 6 illustrates direct binding of SRC2-2 to ERα-LBD in the presence of the ligands estradiol, diethylstilbestrol and genistein. […] Measured dissociation constants for binding of members of the SRC peptide library to ERα, in the presence of 3 different ligands, are illustrated in Table 4 wherein the binding units are μM. Table 5 illustrates a comparison of binding constants (μM) for SRC peptides with the TRβ receptor in the presence of thyroid hormone T3, and the ERα receptor in the presence of estradiol.
# [1] = target: T2, hERα-LBD (ligand binding domain of …); experiment: fluorescence polarization, labelled peptide 10 nM, hERα-LBD titrated, genistein present
# Experimental: (§3) The concentration of protein varied between 0.001-20 μM in the following way. In 96 well plates, hTRβ-LBD or hERα-LBD was serially diluted from 40 μM to 0.002 μM in binding buffer (50 mM Sodium Phosphate, 150 mM NaCl, pH 7.2, 1 mM DTT, 1 mM EDTA, 0.01% NP40, 10% glycerol), containing 200 μM ligand (T₃, for TRβ, or estradiol, diethylstilbestrol, genistein or tamoxifen for ERα).
# as §1
# as §2, with “IC₅₀” for “IC50”
# [2] = target: T2, hERα-LBD (ligand binding domain of …); experiment: fluorescence polarization, labelled peptide 10 nM, hERα-LBD titrated, diethylstilbestrol present
# Experimental: as §3, §1
# as §2, with “IC₅₀” for “IC50”
# [3] = target: T3, hTRβ-LBD (ligand binding domain of …); experiment: fluorescence polarization, hTRβ-LBD titrated, T3 present; Table 3 prints >AL (assay limits) for this pair
# Experimental: as §3, §1
# as §2, with “IC₅₀” for “IC50”
molecule,measurement,setting,value
CC(C)C[C@H](NC(=O)[C@H](CCC(N)=O)NC(=O)[C@@H](NC(=O)[C@H](CC(C)C)NC(=O)[C@H](CCCCN)NC(=O)[C@H](Cc1c[nH]cn1)NC(=O)[C@H](CO)NC(=O)[C@@H](NC(=O)[C@H](CCC(N)=O)NC(=O)[C@H](CO)NC(=O)[C@H](Cc1ccc(O)cc1)NC(=O)[C@@H](N)CSCC(=O)Nc1ccc2c(c1)C(=O)OC21c2ccc(O)cc2Oc2cc(O)ccc21)[C@@H](C)O)C(C)C)C(=O)N[C@@H](CC(C)C)C(=O)N[C@H](C(=O)N[C@H](C(=O)N[C@H](C(=O)N[C@@H](C)C(=O)N[C@@H](CCC(=O)O)C(=O)N[C@@H](CCC(N)=O)C(=O)N[C@@H](CCC(N)=O)C(=O)O)[C@@H](C)O)[C@@H](C)O)[C@@H](C)O [SRC1-1] (H-C(Fluorescein(5-NHCOCH2))YSQTSHKLVQLLTTTAEQQ-OH),Kd,hERα-LBD,1.21 µM
CC[C@H](C)[C@H](NC(=O)[C@H](CCCNC(=N)N)NC(=O)[C@H](Cc1c[nH]cn1)NC(=O)[C@H](CCCCN)NC(=O)[C@H](CCC(=O)O)NC(=O)[C@H](CCC(N)=O)NC(=O)[C@H](CC(C)C)NC(=O)[C@@H](N)CSCC(=O)Nc1ccc2c(c1)C(=O)OC21c2ccc(O)cc2Oc2cc(O)ccc21)C(=O)N[C@@H](CC(C)C)C(=O)N[C@@H](Cc1c[nH]cn1)C(=O)N[C@@H](CCCCN)C(=O)N[C@@H](CC(C)C)C(=O)N[C@@H](CC(C)C)C(=O)N[C@@H](CCC(N)=O)C(=O)N[C@@H](CC(N)=O)C(=O)NCC(=O)N[C@@H](CC(N)=O)C(=O)N[C@@H](CO)C(=O)N1CCC[C@H]1C(=O)N[C@@H](C)C(=O)O [SRC3-2] (H-C(Fluorescein(5-NHCOCH2))LQEKHRILHKLLQNGNSPA-OH),Kd,hERα-LBD,0.363 µM
CSCC[C@H](NC(=O)[C@H](CCC(N)=O)NC(=O)[C@H](CC(=O)O)NC(=O)[C@H](CO)NC(=O)[C@H](CCCCN)NC(=O)[C@@H](NC(=O)[C@@H](NC(=O)[C@H](CC(C)C)NC(=O)[C@H](CC(C)C)NC(=O)[C@H](CCC(N)=O)NC(=O)[C@H](CC(C)C)NC(=O)[C@H](CC(C)C)NC(=O)[C@H](CCCCN)NC(=O)[C@@H](NC(=O)[C@H](CCC(N)=O)NC(=O)CNC(=O)[C@H](CCCCN)NC(=O)[C@H](CO)NC(=O)[C@H](CC(=O)O)NC(=O)[C@@H](N)CSCC(=O)Nc1ccc2c(c1)C(=O)OC21c2ccc(O)cc2Oc2cc(O)ccc21)[C@@H](C)O)[C@@H](C)O)[C@@H](C)O)C(=O)O [SRC2-1] (H-C(Fluorescein(5-NHCOCH2))DSKGQTKLLQLLTTKSDQM-OH),Kd,hERα-LBD,0.927 µM
CC(C)C[C@H](NC(=O)[C@H](CC(=O)O)NC(=O)[C@H](CCCCN)NC(=O)[C@H](CCC(=O)O)NC(=O)[C@H](CC(=O)O)NC(=O)[C@H](CCCCN)NC(=O)[C@H](CC(=O)O)NC(=O)[C@H](CC(C)C)NC(=O)[C@H](CC(C)C)NC(=O)[C@H](Cc1ccc(O)cc1)NC(=O)[C@H](CCCNC(=N)N)NC(=O)[C@H](CC(C)C)NC(=O)[C@H](CC(C)C)NC(=O)[C@H](CCC(N)=O)NC(=O)[C@H](Cc1c[nH]cn1)NC(=O)[C@H](CC(=O)O)NC(=O)[C@H](CCCCN)NC(=O)[C@H](CO)NC(=O)[C@H](CCC(=O)O)NC(=O)[C@@H](N)CSCC(=O)Nc1ccc2c(c1)C(=O)OC21c2ccc(O)cc2Oc2cc(O)ccc21)C(=O)O [SRC1-3],Kd,hERα-LBD,2.54 µM
C(5‑iodoacetamidofluorescein)LQEKHRILHKLLQNGNSPA [SRC3-2 coregulator peptide],Kd,[1],1.03 µM
same,Kd,[2],0.415 µM
same,Kd,[3],100 µM
C(5‑iodoacetamidofluorescein)ESKDHQLLRYLLDKDEKDL [SRC1-3 coregulator peptide],Kd,[1],2.55 µM
same,Kd,[2],1.46 µM
same,Kd,[3],100 µM
C(5‑iodoacetamidofluorescein)YSQTSHKLVQLLTTTAEQQ [SRC1-1 coregulator peptide],Kd,[1],5 µM
same,Kd,[2],0.853 µM
same,Kd,[3],100 µM
"CLKEKHKILHRLLQDSSSPV (5-iodoacetamidofluorescein coupled to the amino terminal cysteine, also called SRC2-2 peptide) [SRC2-2 coregulator peptide]",Kd,[1],0.569 µM
same,Kd,[2],0.277 µM
C(5‑iodoacetamidofluorescein)LTARHKILHRLLQEGSPSD [SRC1-2 coregulator peptide],Kd,[1],0.298 µM
same,Kd,[2],0.302 µM
C(5‑iodoacetamidofluorescein)DSKGQTKLLQLLTTKSDQM [SRC2-1 coregulator peptide],Kd,[1],2.6 µM
same,Kd,[2],0.896 µM
same,Kd,[3],100 µM
